From the DeepSol protein solubility set

Assay: soluble on expression in E. coli; label from the status in PepcDB or PDB records
With “MGSDKIHHHHHHMVMTVGDSRVGKSTVIKLLLEMYQIQGKRLKVYDHDNRDRFLAYKDLVCIEKIDFFNTRTDRIFNDLIVDSLDIILVDMPGQYLDKICQYIIQSELLGALAEYGWSLTFVQPISHRTDCIDYLSQIVQTATNNANYVVVKNYHFAPEFREYEQTMAKNLLMIGGTEIELTALHRNHYQAMEKAGIPYSQVCQDISMILFLRSYIYQWIKKFHDSVMDNDLAVKYLGLD” the “soluble on expression in E. coli” value was “not soluble”.
In the case of “MSLQSLIGLMRPETGKKLENLNHFIQQFEKVLIAFSGGVDSSTLAAVCSNAGVEVLAVTVLSSVSPRREMEEAKRIAEELGVRHEFLKIDLMDEDFRRNDENRCYYCKRRVLSALVEEAKKRGIEVVLEGTNASDLSDHRPGYRAVRELDGVNSPWVEFGITKEEIREIARSMGYSFHDKPSMACLASRIPFGIEIDEEKLKMVDEAEEAVIELAGVKQVRVRNYDGVAVVEVAGDELRKLLNCAEKVRDKLKKIGFRAVLIDLEGYRSGKRLFKFEGHHHHHH”, the “soluble on expression in E. coli” value is reported as “soluble”.
With “MGSDKIHHHHHHMQYTELVPGTLIRRYKRFLADVALASGDVVVAHCPNTGSMRAVDVPGCRVWLSPSRNPARKLAWTWELIELPMPDAPPALVSVHTGRANALVAQALQEARIPELAGYDTHKREVRVADARLDFRLSTAHAAAYVEVKQVTLREHDGHGYFPDSVSERGRRHLEALAARVAEGDRAVLLFCVAHTGIDAVAPAAHLDPAYAETLRRVAAQGVEVLAYGMSATWTHDGVPGDIALTRALPVSLERRLASATPLSD” the “soluble on expression in E. coli” value was “not soluble”.
In the case of “MLKSSASAPAKAILFGEHAVVYSKPAIAAAIDRRVTVTVSESSSTHVTIPSLGIRHSSERPSGGILDYIGRCLELYHDASPLDIRVEMEIPAGSGLGSSAALTVALIGPLDRYHGRDHGPGETAARAHRVEVDVQGAASPLDTAISTYGGLVYLDSQRRVRQFEADLGDLVIAHLDYSGETARMVAGVAERFRRFPDIMGRIMDTVESITNTAYRELLRNNTEPLGELMNLNQGLLDSMGVSTRELSMMVYEARNAGAAGSKITGAGGGGSIIAHCPGCVDDVVTALNRNWKAMRAEFSVKGLI”, the “soluble on expression in E. coli” value is reported as “soluble”.
With “MSLSYLPLDEYQRKWIFTHQSMPVPEEDLAQIKPMSQARSAQFWKENISAQSPDMDRLSSQDWPMKESNWSETVDWMAAWESDEPNMPTEVETHIDWQDDVTVYFCYEKYNVIETKWSIFKKHWKNFLFYDDGPMLLGRRRAQALWFDSKGNVKLGERHEGHHHHHH” the “soluble on expression in E. coli” value was “soluble”.
With “MTIPLWWQNGVIYQIYPKSFQDTTGSGTGDLRGVTQRLDYLQRLGVDAIWLTPFYISPQVDNGYDVANYTAIDPTYGTLDDFDELVAQAKARGIRIILDMVFNHTSTQHAWFREALNKESPYRQFYIWRDGTPDVCPNNWQSKFGGSAWRWHSQSEQYYLHLFAPEQADLNWENPAVRAELKKVCEFWADRGVDGLRLDVVNLIAKDQNFPDDPTGDGRRFYTDGPRAHTFLREMNRDVFTPRNLMTVGEMSSTTLENCQQYAALSGDELSMTFNFHHLKVDYPNGEKWTLAKPDYVALKALFRHWQQGMHNVAWNALFWCNHDQPRIVSRFGDEGEYRVPAAKMLAMALHGMQGTPYIYQGEEIGMTNPHFTRITDYRDVESHNMFAALRAAGRDPDELLAILASKSRDNSRTPMQWDNGKNAGFTQGEPWISLCDNYTEVNVEAALRDENSVFYTYQKLIALRKTQPVLIWGDYQDLLPDSPSVWCYRRQWQGQILLVVANLSNQCQEWHPPHIKGQWQALLHNYGEVASQPAAMTLRPFEAIWWLQR” the “soluble on expression in E. coli” value was “not soluble”.
For “MELFELFILDANGVPRGKLLHRDELLAVYRSGRPLPSTILGLTMNGEDVEDSGLVWDVGDIDCRAYPLSGSLVRLPWRQIPTAAVQVSMHPSEGLPASVADPRHLLVRTIDALKSEGYHPVMAAELEFYLLDRERDANGRPQPARDADGGRPRATQVYGLRELEQIEPFLADLYAACKAQGLPARTAISEYAPGQVEITLDHGDALAAMDQAIRYKRLVKGIAHKHGMLACFMAKPFDDLAGTGMHLHVSLADEQGHNLFASDDPAGTPLLRQAVGGMLASLLDSLLLFCPNANSYRRFQANSYAPLAQTWGVDNRTVSLRVPGGPASSRHIEHRICGADANPYLAAAALLAGVHRGIREGIDPGAPVEGNGYAQAGKRLPTDWLTALDTLQGSEWAREAFGEPFLGVYLAVKRAEYRQFMGEVGEQDWRWYL”, the “soluble on expression in E. coli” value was “not soluble”.
With “MVILLPMVTFTMAYLIVDVPKPGDIRTNQVSTILASDGSEIAKIVPPEGNRVDVNLSQVPMHVRQAVIAAEDRNFYSNPGFSFTGFARAVKNNLFGGDLQGGSTITQQYVKNALVGSAQHGWSGLMRKAKELVIATKMSGEWSKDDVLQAYLNIIYFGRGAYGISAASKAYFDKPVEQLTVAEGALLAALIRRPSTLDPAVDPEGAHARWNWVLDGMVETKALSPNDRAAQVFPETVPPDLARAENQTKGPNGLIERQVTRELLELFNIDEQTLNTQGLVVTTTIDPQAQRAAEKAVAKYLDGQDPDMRAAVVSIDPHNGAVRAYYGGDNANGFDFAQAGLQTGSSFKVFALVAALEQGIGLGYQVDSSPLTVDGIKITNVEGEGCGTCNIAEALKMSLNTSYYRLMLKLNGGPQAVADAAHQAGIASSFPGVAHTLSEDGKGGPPNNGIVLGQYQTRVIDMASAYATLAASGIYHPPHFVQKVVSANGQVLFDASTADNTGDQRIPKAVADNVTAAMEPIAGYSRGHNLAGGRDSAAKTGTTQFGDTTANKDAWMVGYTPSLSTAVWVGTVKGDEPLVTASGAAIYGSGLPSDIWKATMDGALKGTSNETFPKPTEVGGYAGVPPPPPPPEVPPSETVIQPTVEIAPGITIPIGPPTTITLAPPPPAPPAATPTPPP” the “soluble on expression in E. coli” value was “soluble”.
For “MEKLAAKVLENFDFLKKLLRDRAECGESEITIYDDPVTIVVKRDRIDFFINEEYHGSVGVGFNTLSDEIREEARLWLEGLAGMKFKRYAVRR”, the “soluble on expression in E. coli” value was “not soluble”.
In the case of “MGSDKIHHHHHHMRVLVTGANGFVGSRLAGQLGRSDHFSLACAVRTTGTCRFGEEYSIGELGPKTDWSAALRGQDVVVHLAARAHVMDDEAPDPLVEYRRVNVDGTLNLARQAIDAGVRRFVFVSSIKVNGEQTDLGQPFTSDQITAPADAYGISKLEAERGLLALGKESGMEVVIIRPPLVYGPGVKGNFATLIKLVEKGFPLPLGAISNKRTLVSLDNLVDLIQVCIDHPAAANEVFLAGDNSDLSTSELLREIGKAVGKPARLIPVPQGFLMVAARLLGKTDVARRLFGSLQVDISKARHLLGWEPPVSVEEGLRRCFELESRS”, the “soluble on expression in E. coli” value is reported as “not soluble”.
With “MSSKVSPLAPTDVPAMPMIAGVRLATAAAGIRYKGRTDVLLVEMEKGTTVAGVFTTSKCASAPVEWCRDKLKGGSARALVVNSGNANAFTGKSGKQAATLTAQLAAKAIGCKPAEVFLASTGVIGEPLDATKFDGVLDALALDAGPDGWMDAAKAIMTTDTFPKVATATVKLGKAKVTINGMAKGAGMIAPDMATMLSFIFTDAPLSASCLQALLKAGVTDTFNAVTIDGDTSTSDTLLAFATGAAAENGAPKISRASDPRLKAFVKAFNAVLADLAEQVARDGEGARKLVEIIVEGAKTKVSARKIALSIANSPLVKTAIAGEDANWGRVVMAVGKAGEPADRDKLSISFNGIRVAKAGARDPSYNEKEVSAEMKKPVIQIKVALGLGKGRDRVLTCDLTKEYVAINGDYRSLEHHHHHH” the “soluble on expression in E. coli” value was “not soluble”.
With “MGSDKIHHHHHHMNDPESIFQRLDRLLARIEDTLPVRPQHADPAEYIALRWRKHGDTGYLQAINHPHTITLNELLNIEEQKQTLDRNTLQFVSGLPANNVLLTGARGTGKSSLIKALLNRYADRGLRMIEVDKLGLTDLPDIIEFIGQRPERFILYCDDLSFEADEPGYKALKVVLDGSISTASDNVLIYATSNRRHLIPEFMHENLATRHVDGEIHPGEATEEKISLSERFGLWLSFYPFDQEQYLEIVRHWLSQHGISRLSGPARQEALRWALARGSRNGRVARQFARDWAGQQKLAKTEPVRVDKE” the “soluble on expression in E. coli” value was “not soluble”.
In the case of “MNKEEQYLLFALSAPMEILNQGCKPAHDSPKMYTGIKEFELSSSWGINNRDDLIQTIYQMTDDGHANDLAGLYLTWHRSSPEEWKALIAGGSERGLIYTQFVAQTAMCCGEGGIKAWDYVRMGFLSRVGVLNKWLTEEESLWLQSRVYVRAHHYYHSWMHYFSAYSLGRLYWQSSQCEDNTSLREALTLYKYDSAGSRMFEELAAGSDRFYATLPWQPLTVQSECPVTLKDVSDL”, the “soluble on expression in E. coli” value is reported as “soluble”.
For “SAAHQMDSITYSNNVTQQYIQPQSLQDISAVEDEIQNKIEAARQESKQLHAQINKAKHKIQDASLFQMANKVTSLTKNKINLKPNIVLKGHNNKISDFRWSRDSKRILSASQDGFMLIWDSASGLKQNAIPLDSQWVLSCAISPSSTLVASAGLNNNCTIYRVSKENRVAQNVASIFKGHTCYISDIEFTDNAHILTASGDMTCALWDIPKAKRVREYSDHLGDVLALAIPEEPNSENSSNTFASCGSDGYTYIWDSRSPSAVQSFYVNDSDINALRFFKDGMSIVAGSDNGAINMYDLRSDCSIATFSLFRGYEERTPTPTYMAANMEYNTAQSPQTLKSTSSSYLDNQGVVSLDFSASGRLMYSCYTDIGCVVWDVLKGEIVGKLEGHGGRVTGVRSSPDGLAVCTGSWDSTMKIWSPGYQ”, the “soluble on expression in E. coli” value was “not soluble”.
In the case of “MGSDKIHHHHHHMSGIEAFSPKGMLHECWSAQANDYAIVCGWALQGKTFLVGDVAGGLYAFEGISGKLIWQIKDIHKGGLLAMSIHPNGKTFATAGQDGHVNIWESQKGTSTKTLELGKGWVEHIKWSPDGKFLAVVFTKYVYVFDDKGQEHWRSEEHPSTVSAIAWSNSNELATACYGQVTFFDVVNDKINQKLEWRGSLVSMVLSPDGDIVACGSQDNSVHFWRRSTDQDSEMTGYPGKPSHLAFDQTGTVLATGGSDRVTVWSFQGDGPEGTVPGELMLHTEPISCLAFSHSGMLLASGSRDGSVFSWFLQKDGQGDPVGGAFAGDLVSQIAWHPDDTALAAINANGGITVWEFKVRTKTSPQGFG”, the “soluble on expression in E. coli” value is reported as “not soluble”.
For “MSLIPIDYLRASRKGREVRPRYLNDDKIASEVINMAKSAKTLGEFRNAVELISSDKKLVRGLAHVLEQLIEIEKIDSKLVTRTRLEVFKAASALGYPLTEEERERVFQTVAARLKMGVNEVKALFLKAYEENRLIVKAPDIQPKQLVEMYNLALIQALLFKSLYVKALLPNAPALLKGLIRAVKGLGLMYIVEINGGQLEFRFDGPVSALRQTERYGTRLAKLVPYITSAEKWEIEAQVKLGERIYVFKESGRTAPPLPKTPPHAEQFDSLVEQEFYKQVSKICHVEREPEALVVDGRVYIPDFKIGDLYVEIVGFWTPDYLKRKYEKITKVGKPLLVLVSEELAMATWKQLMPNVVVFKDRPRLSDVFKYIKPYCVNHREGHHHHHH”, the “soluble on expression in E. coli” value was “not soluble”.
In the case of “MSLSDLDRAIAQLRACRLIPEAQVRELCYKARELLIEEGNVVCVDAPVTICGDIHGQFHDLMELFRVGGDVPDTNYLFMGDFVDRGFYSLESEGHHHHHH”, the “soluble on expression in E. coli” value is reported as “not soluble”.
In the case of “MKIYIEGYGCTLNTADTQIIKNSVNEFEDFELTDNVDDSDIIVINTCIVRQETEHRMISRIEYFKSLDKKVVVAGCMAKALSKKIENLADVLIMPREAQHSGNILKDKLLKDFSEKNNESTQNLNFEDKLNEKIKKVSSQGLITALPICEGCLGSCTYCIVKRARGNLASYDRDLIVKKAEELVKSGTKCLLVTAQDTACYGLDNNDSLPNLINDISEIPEKFAMRIGMMHAKFAEPILDELIESFKSEKVVKFLHLPIQSGDDQVLKDMNRNYTVDEYISVLNEFKSKIKNLNFTTDVIVGFPTETEEAFENTLEIVKKIKPDFTHAAKYSQRKYTKAAILKQVDTKIRKERSEILNELRRELSYENNKRHIGETFEILVTKDNMGVTDNCKNVIFEEPAKIGEFKRVKITGAKTFGLSGKLINLEHHHHHH”, the “soluble on expression in E. coli” value is reported as “soluble”.
In the case of “NGVWVIGEQREGKINPVTIELIGEGRKLADQLGKELAVVIAGYEVEKEVKELLHYSVDKVYYINDPLLKDFTTDGYAISIANLIERKKPEVVLVGATSIGRDIAPRIAGKVGTGLTADCTKLEIDSTDNKLLQTRPAFGGNLMATIVCPKNRPQMSTVRPGVMAKAVRNESETGILEVVTPELTEKMIRTRLVEILPQEKKSVN”, the “soluble on expression in E. coli” value is reported as “soluble”.
